B1: GpH7-A5/GpH7-B3 variant K334_01G/GpL16-k0 (antibody, human IgG1, kappa)
heavy 1: not shown
heavy 2: not shown
light: DIVMTQSPLSLPVTPGEPASISCQASESLVHSNRNTYLHWYLQKPGQSPQLLIYKVSNRFSGVPDRFSGSGSGTDFTLKISRVEAEDVGVYYCSQNTHVPPTFGQGTKVEIERTVAAPSVFIFPPSDEQLKSGTASVVCLLNNFYPREAKVQWKVDNALQSGNSQESVTEQDSKDSTYSLSSTLTLSKADYEKHKVYACEVTHQGLSSPVTKSFNRGEC
notes: also called He Ab K334_01G
B2: GpH7-A5/GpH7-B3 variant I332_02A/GpL16-k0 (antibody, human IgG1, kappa)
heavy 1: not shown
heavy 2: not shown
light: B1 light
notes: also called He Ab I332_02A
B3: GpH7-A5/GpH7-B3 variant K326_19Q/GpL16-k0 (antibody, human IgG1, kappa)
heavy 1: not shown
heavy 2: not shown
light: B1 light
notes: also called He Ab K326_19Q
B4: GpH7-A5/GpH7-B3 variant I332_10E/GpL16-k0 (antibody, human IgG1, kappa)
heavy 1: not shown
heavy 2: not shown
light: B1 light
notes: also called He Ab I332_10E
B5: GpH7-A5/GpH7-B3 variant I336_09D/GpL16-k0 (antibody, human IgG1, kappa)
heavy 1: not shown
heavy 2: not shown
light: B1 light
notes: also called He Ab I336_09D
B6: GpH7-A5/GpH7-B3 variant K326_08L/GpL16-k0 (antibody, human IgG1, kappa)
heavy 1: not shown
heavy 2: not shown
light: B1 light
notes: also called He Ab K326_08L
B7: GpH7-A5/GpH7-B3 variant I332_13S/GpL16-k0 (antibody, human IgG1, kappa)
heavy 1: not shown
heavy 2: not shown
light: B1 light
notes: also called He Ab I332_13S
B8: GpH7-A5/GpH7-B3 variant K326_15Y/GpL16-k0 (antibody, human IgG1, kappa)
heavy 1: not shown
heavy 2: not shown
light: B1 light
notes: also called He Ab K326_15Y
B9: GpH7-A5/GpH7-B3 variant K334_08L/GpL16-k0 (antibody, human IgG1, kappa)
heavy 1: not shown
heavy 2: not shown
light: B1 light
notes: also called He Ab K334_08L
B10: GpH7-A5/GpH7-B3 variant I336_13S/GpL16-k0 (antibody, human IgG1, kappa)
heavy 1: not shown
heavy 2: not shown
light: B1 light
notes: also called He Ab I336_13S
B11: GpH7-A5/GpH7-B3 variant K326_03V/GpL16-k0 (antibody, human IgG1, kappa)
heavy 1: not shown
heavy 2: not shown
light: B1 light
notes: also called He Ab K326_03V
B12: GpH7-A5/GpH7-B3 variant A330_08L/GpL16-k0 (antibody, human IgG1, kappa)
heavy 1: not shown
heavy 2: not shown
light: B1 light
notes: also called He Ab A330_08L
B13: GpH7-A5/GpH7-B3 variant K334_14T/GpL16-k0 (antibody, human IgG1, kappa)
heavy 1: not shown
heavy 2: not shown
light: B1 light
notes: also called He Ab K334_14T
B14: GpH7-A5/GpH7-B3 variant K326_14T/GpL16-k0 (antibody, human IgG1, kappa)
heavy 1: not shown
heavy 2: not shown
light: B1 light
notes: also called He Ab K326_14T
B15: GpH7-A5/GpH7-B3 variant I332_01G/GpL16-k0 (antibody, human IgG1, kappa)
heavy 1: not shown
heavy 2: not shown
light: B1 light
notes: also called He Ab I332_01G
B16: GpH7-A5/GpH7-B3 variant I332_15Y/GpL16-k0 (antibody, human IgG1, kappa)
heavy 1: not shown
heavy 2: not shown
light: B1 light
notes: also called He Ab I332_15Y
B17: GpH7-A5/GpH7-B3 variant K334_09D/GpL16-k0 (antibody, human IgG1, kappa)
heavy 1: not shown
heavy 2: not shown
light: B1 light
notes: also called He Ab K334_09D
B18: GpH7-A5/GpH7-B3 variant I336_14T/GpL16-k0 (antibody, human IgG1, kappa)
heavy 1: not shown
heavy 2: not shown
light: B1 light
notes: also called He Ab I336_14T
B19: GpH7-A5/GpH7-B3 variant K326_04F/GpL16-k0 (antibody, human IgG1, kappa)
heavy 1: not shown
heavy 2: not shown
light: B1 light
notes: also called He Ab K326_04F
B20: GpH7-A5/GpH7-B3 variant I332_09D/GpL16-k0 (antibody, human IgG1, kappa)
heavy 1: not shown
heavy 2: not shown
light: B1 light
notes: also called He Ab I332_09D
B21: GpH7-A5/GpH7-B3 variant E333_16H/GpL16-k0 (antibody, human IgG1, kappa)
heavy 1: not shown
heavy 2: not shown
light: B1 light
notes: also called He Ab E333_16H
B22: GpH7-A5/GpH7-B3 variant I336_18N/GpL16-k0 (antibody, human IgG1, kappa)
heavy 1: not shown
heavy 2: not shown
light: B1 light
notes: also called He Ab I336_18N

Each binder was assayed against T1, FcγRIIIa extracellular domain with C-terminal His tag (human, UniProt P08637 17-208) (assay: SPR Biacore, captured antibody, FcγR analyte, relative binding).
T1 construct: extracellular domain; also called FcgRIIIa; 3a; not shown: His tag attached to the C terminus
Experimental: Analysis of interaction between objective antibody and the FcγR was carried out using Biacore T100 (GE Healthcare). HBS-EP+ (GE Healthcare) was used as the running buffer, and the measurement temperature was set to 25° C. Chips produced by immobilizing the antigen peptide by the amine coupling method to a Series S Sencor Chip CM5 (GE Healthcare), or alternatively, chips produced by allowing preliminarily biotinylated antigen peptides to interact with and immobilize onto a Series S Sensor Chip SA (certified) (GE Healthcare) were used. Antibodies of interest were captured onto an antigen peptide-immobilized chip, and allowed to interact to each FcγR diluted with running buffer. To regenerate and repeatedly use the chip, the antibodies captured on the chip were washed off by reacting 10 mM glycine-HCl, pH 1.5.

T1 sequence (P08637 17-208): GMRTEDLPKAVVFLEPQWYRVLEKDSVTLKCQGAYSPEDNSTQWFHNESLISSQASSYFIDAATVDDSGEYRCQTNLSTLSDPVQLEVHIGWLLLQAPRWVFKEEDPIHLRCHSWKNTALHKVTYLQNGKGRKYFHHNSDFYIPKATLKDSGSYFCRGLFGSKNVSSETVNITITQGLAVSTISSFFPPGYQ

He/Con_3a | Binder
121 % of HeCon Ab GpH7-A5/GpH7-B3/GpL16-k0 (=100) | B1
112 % of HeCon Ab GpH7-A5/GpH7-B3/GpL16-k0 (=100) | B2
106 % of HeCon Ab GpH7-A5/GpH7-B3/GpL16-k0 (=100) | B3
233 % of HeCon Ab GpH7-A5/GpH7-B3/GpL16-k0 (=100) | B4
106 % of HeCon Ab GpH7-A5/GpH7-B3/GpL16-k0 (=100) | B5
114 % of HeCon Ab GpH7-A5/GpH7-B3/GpL16-k0 (=100) | B6
104 % of HeCon Ab GpH7-A5/GpH7-B3/GpL16-k0 (=100) | B7
112 % of HeCon Ab GpH7-A5/GpH7-B3/GpL16-k0 (=100) | B8
143 % of HeCon Ab GpH7-A5/GpH7-B3/GpL16-k0 (=100) | B9
102 % of HeCon Ab GpH7-A5/GpH7-B3/GpL16-k0 (=100) | B10
122 % of HeCon Ab GpH7-A5/GpH7-B3/GpL16-k0 (=100) | B11
124 % of HeCon Ab GpH7-A5/GpH7-B3/GpL16-k0 (=100) | B12
141 % of HeCon Ab GpH7-A5/GpH7-B3/GpL16-k0 (=100) | B13
126 % of HeCon Ab GpH7-A5/GpH7-B3/GpL16-k0 (=100) | B14
111 % of HeCon Ab GpH7-A5/GpH7-B3/GpL16-k0 (=100) | B15
101 % of HeCon Ab GpH7-A5/GpH7-B3/GpL16-k0 (=100) | B16
160 % of HeCon Ab GpH7-A5/GpH7-B3/GpL16-k0 (=100) | B17
108 % of HeCon Ab GpH7-A5/GpH7-B3/GpL16-k0 (=100) | B18
103 % of HeCon Ab GpH7-A5/GpH7-B3/GpL16-k0 (=100) | B19
207 % of HeCon Ab GpH7-A5/GpH7-B3/GpL16-k0 (=100) | B20
103 % of HeCon Ab GpH7-A5/GpH7-B3/GpL16-k0 (=100) | B21
104 % of HeCon Ab GpH7-A5/GpH7-B3/GpL16-k0 (=100) | B22

Source: patent US20150344570A1 (published 2015)
